The source of these data is patent US20180201658A1 (MIT, published 2018).

Experiment [1] has as its target T1, human Bcl-xL (human, UniProt Q07817 1-209). As to the kind of experiment: cell-based or functional assay.
The target in experiment [2] is T2, human Bcl-2 (human, UniProt P10415 1-217, limits assumed). As to the kind of experiment: cell-based or functional assay.
The next experiment concerns the target murine Mcl-1 (murine, UniProt P97287 1-331, limits assumed). As to the kind of experiment: cell-based or functional assay.
Experiment [3] has as its target T1, human Bcl-xL. As to the kind of experiment: fluorescence anisotropy (FIG. 1).
For experiment [4], the target named is T2, human Bcl-2. Briefly: fluorescence anisotropy (FIG. 1).
Another experiment has as its target T3, human Bcl-w (human, UniProt Q92843 1-164, limits assumed).
T3 sequence (looked up): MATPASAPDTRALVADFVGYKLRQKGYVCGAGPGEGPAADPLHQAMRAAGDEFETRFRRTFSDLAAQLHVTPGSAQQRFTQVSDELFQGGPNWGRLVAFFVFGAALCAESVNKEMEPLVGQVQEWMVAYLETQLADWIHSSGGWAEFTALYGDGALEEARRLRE
Briefly: fluorescence anisotropy (FIG. 1). Background: In fluorescence polarisation assays a small probe gives low polarisation when free and higher when bound to something large.

Another experiment concerns the target T4, human Bfl-1 (human, UniProt Q16548 1-151, limits assumed).
T4 construct: Also used for the Bfl-1 of Pfeiffer cells in the functional rows
T4 sequence (looked up): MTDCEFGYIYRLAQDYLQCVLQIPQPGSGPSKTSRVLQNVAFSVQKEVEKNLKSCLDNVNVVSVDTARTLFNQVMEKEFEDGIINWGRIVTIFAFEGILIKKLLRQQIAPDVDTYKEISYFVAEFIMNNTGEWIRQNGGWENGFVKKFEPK
As to the kind of experiment: fluorescence anisotropy (FIG. 1).

T1 sequence (Q07817 1-209): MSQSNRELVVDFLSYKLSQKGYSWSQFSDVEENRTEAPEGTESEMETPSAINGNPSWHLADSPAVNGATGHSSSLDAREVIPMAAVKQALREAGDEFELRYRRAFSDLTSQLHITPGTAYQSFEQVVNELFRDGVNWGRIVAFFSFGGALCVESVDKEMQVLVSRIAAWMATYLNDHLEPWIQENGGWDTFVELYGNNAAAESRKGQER
T2 sequence (P10415 1-217 limits assumed): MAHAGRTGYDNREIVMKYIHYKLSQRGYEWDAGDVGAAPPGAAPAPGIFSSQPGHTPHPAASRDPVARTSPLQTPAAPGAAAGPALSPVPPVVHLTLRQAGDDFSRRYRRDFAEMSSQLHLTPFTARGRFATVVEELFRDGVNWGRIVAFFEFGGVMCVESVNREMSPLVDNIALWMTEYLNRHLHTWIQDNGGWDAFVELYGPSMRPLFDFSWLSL
murine Mcl-1, sequence (P97287 whole entry): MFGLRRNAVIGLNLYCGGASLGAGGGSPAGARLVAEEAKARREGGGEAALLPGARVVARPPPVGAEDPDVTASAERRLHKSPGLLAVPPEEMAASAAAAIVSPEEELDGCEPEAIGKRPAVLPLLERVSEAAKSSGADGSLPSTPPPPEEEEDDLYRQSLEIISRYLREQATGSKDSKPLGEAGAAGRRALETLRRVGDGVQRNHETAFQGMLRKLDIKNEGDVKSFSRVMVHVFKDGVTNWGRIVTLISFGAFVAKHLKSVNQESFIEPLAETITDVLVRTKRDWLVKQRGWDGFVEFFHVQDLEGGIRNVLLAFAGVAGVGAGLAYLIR

Regarding AELPPEFAAQLRKIGDKVYC [NoxaA BH3 peptide from murine Noxa, unlabeled], the “EC50 of mitochondrial depolarization, BH3 profiling, MDA-MB-231 cells” value in the experiment with human Bcl-xL [1] is over 100 µM. Besides, the “EC50 of mitochondrial depolarization, BH3 profiling, Bcl-2-dependent line” value with human Bcl-2 [2] was over 100 µM.
As for RPEIWLTQHLQRLGDEINAYYAR [MS3 as used in BH3 profiling], in the experiment with human Bcl-xL [1], the “EC50 of mitochondrial depolarization, BH3 profiling, MDA-MB-231 cells” value was over 100 µM. In addition, in the experiment with human Bcl-2 [2], the “EC50 of mitochondrial depolarization, BH3 profiling, Bcl-2-dependent line” value is over 100 µM. The “EC50 of mitochondrial depolarization, BH3 profiling, Mcl-1/Myc 2640 cells” value with murine Mcl-1 was found to be 0.86 µM.
Take RPEIWMTQGLRRLGDEINAYYAR [MS1, unlabeled]: the “EC50 of mitochondrial depolarization, BH3 profiling, Mcl-1/Myc 2640 cells” value with murine Mcl-1 was 0.07 µM.
With RPEIWITQELRRIGDEFNAYYAR (Bim BH3 point mutant) [Bim_A2eT], the “fold reduction in binding relative to Bim” value was 6 fold in the experiment with human Bcl-xL [3], over 20 fold with human Bcl-2 [4], over 20 fold with human Bcl-w and over 20 fold with human Bfl-1.
RPEIWMTQELRRIGDEFNAYYAR [Bim_A2eT_I2dM]: the “fold reduction in binding relative to Bim_A2eT” value in the experiment with human Bcl-xL [3], with human Bcl-2 [4], in the experiment with human Bcl-w and with human Bfl-1 was about 4 fold each time.
For RPEIWITQELRRIGDEINAYYAR [Bim_A2eT_F4aI], the “fold decrease in binding relative to Bim_A2eT” value turned out to be 6 fold with human Bcl-xL [3] and 3 fold with human Bcl-2 [4].
For RPEIWITQELRRLGDEFNAYYAR [Bim_A2eT_I3dL], the “fold reduction in binding relative to Bim_A2eT” value in the experiment with human Bfl-1 was 4 fold.
